Assay results: publication PMC8754202 (Journal of Virology, 2021)

How the values were obtained:
[1] = target: N-terminal peptidase domain of wild-type human ACE2 (residues Met1-Asp615) (human, UniProt Q9BYF1 18-615); experiment: SPR
[2] = target: N-terminal peptidase domain of human ACE2 [change] variant (residues Met1-Asp615) (human, UniProt Q9BYF1 18-615); experiment: SPR

| Binder | Kd [1] | Kd [2] |
| --- | --- | --- |
| HCoV-NL63 receptor-binding domain (residues Gln481-Ile616) (domain or fragment) QHTDINFTATASFGGSCYVCKPHQVNISLNGNTSVCVRTSHFSIRYIYNRVKSGSPGDSSWHIYLKSGTCPFSFSKLNNFQKFKTICFSTVEVPGSCNFPLEATWHYTSYTIVGALYVTWSEGNSITGVPYPVSGI | 575 nM | 2610 nM |
| SARS-CoV receptor-binding domain (residues Arg306-Leu515) (domain or fragment) not shown | 511 nM |  |
